According to publication PMC4068969, “SacPox from the thermoacidophilic crenarchaeon Sulfolobus acidocaldarius is a proficient lactonase” (BMC Research Notes, 2014):
Where two headings read alike, the source gives them in different places.

What was measured:
SacPox [1] = biological target: T1, SacPox (Sulfolobus acidocaldarius, UniProt Q4J6Z8); test: p-nitrophenolate release, […] nm; format: biochemical; conditions: 50 mM HEPES pH 8, 150 mM NaCl, 0.2 mM CoCl2, 25°C, cobalt cofactor; for Km: no SDS
T1 construct: gene pte; recombinant in E. coli BL21(DE3)-pGro7/GroEL with CoCl2

CCCCC1CCCC(=O)O1 = test: purified protein; format: biochemical, Sulfolobus acidocaldarius; conditions: 2.5 mM Bicine pH 8.3, 150 mM NaCl, 0.2 mM CoCl2, 0.5% DMSO, 25°C, cobalt cofactor
CCCCCCC1CCCC(=O)O1 = test: purified protein; format: biochemical, Sulfolobus acidocaldarius; conditions: 2.5 mM Bicine pH 8.3, 150 mM NaCl, 0.2 mM CoCl2, 0.5% DMSO, 25°C, cobalt cofactor
CCCCCC1CCC(=O)O1 = test: purified protein; format: biochemical, Sulfolobus acidocaldarius; conditions: 2.5 mM Bicine pH 8.3, 150 mM NaCl, 0.2 mM CoCl2, 0.5% DMSO, 25°C, cobalt cofactor
CCCCCCCCC1CCC(=O)O1 = test: purified protein; format: biochemical, Sulfolobus acidocaldarius; conditions: 2.5 mM Bicine pH 8.3, 150 mM NaCl, 0.2 mM CoCl2, 0.5% DMSO, 25°C, cobalt cofactor
[2] = system: CCCCCCCC(=O)CC(=O)N[C@H]1CCOC1=O; test: purified protein; format: biochemical, Sulfolobus acidocaldarius; conditions: 2.5 mM Bicine pH 8.3, 150 mM NaCl, 0.2 mM CoCl2, 0.5% DMSO, 25°C, cobalt cofactor
CCCC1CCC(=O)O1 = test: purified protein; format: biochemical, Sulfolobus acidocaldarius; conditions: 2.5 mM Bicine pH 8.3, 150 mM NaCl, 0.2 mM CoCl2, 0.5% DMSO, 25°C, cobalt cofactor
CCCCCCCC(=O)NC1CCOC1=O = test: purified protein; format: biochemical, Sulfolobus acidocaldarius; conditions: 2.5 mM Bicine pH 8.3, 150 mM NaCl, 0.2 mM CoCl2, 0.5% DMSO, 25°C, cobalt cofactor
CCCCCCCC1CCCC(=O)O1 = test: purified protein; format: biochemical, Sulfolobus acidocaldarius; conditions: 2.5 mM Bicine pH 8.3, 150 mM NaCl, 0.2 mM CoCl2, 0.5% DMSO, 25°C, cobalt cofactor
[3] = system: CCCCCC(=O)CC(=O)N[C@H]1CCOC1=O; test: purified protein; format: biochemical, Sulfolobus acidocaldarius; conditions: 2.5 mM Bicine pH 8.3, 150 mM NaCl, 0.2 mM CoCl2, 0.5% DMSO, 25°C, cobalt cofactor
SacPox [4] = biological target: T1, SacPox; test: phenyl acetate hydrolysis, […] nm; format: biochemical; conditions: 50 mM HEPES pH 8, 150 mM NaCl, 0.2 mM CoCl2, 25°C; cobalt cofactor
SacPox [5] = biological target: T1, SacPox; format: biochemical; conditions: 2.5 mM Bicine pH 8.3, 150 mM NaCl, 0.2 mM CoCl2, 0.5% DMSO, 25°C; cobalt cofactor

Compound: CCOP(=O)(OCC)Oc1ccc([N+](=O)[O-])cc1 [Paraoxon]
- Km (SacPox [1]): 434 ± 54 µM

Compound: SacPox (Sulfolobus acidocaldarius DSM 639)
- Km (CCCCC1CCCC(=O)O1): 348 ± 53 µM
- kcat (CCCCC1CCCC(=O)O1): 4.55 ± 0.21 s⁻¹
- kcat/Km (CCCCC1CCCC(=O)O1): 13100 ± 2100 M⁻¹ s⁻¹
- Km (CCCCCCC1CCCC(=O)O1): 168 ± 37 µM
- kcat (CCCCCCC1CCCC(=O)O1): 1.05 ± 0.05 s⁻¹
- kcat/Km (CCCCCCC1CCCC(=O)O1): 6220 ± 1400 M⁻¹ s⁻¹
- Km (CCCCCC1CCC(=O)O1): 109 ± 19 µM
- kcat (CCCCCC1CCC(=O)O1): 2.64 ± 0.07 s⁻¹
- kcat/Km (CCCCCC1CCC(=O)O1): 24400 ± 4400 M⁻¹ s⁻¹
- Km (CCCCCCCCC1CCC(=O)O1): 242 ± 60 µM
- kcat (CCCCCCCCC1CCC(=O)O1): 0.53 ± 0.03 s⁻¹
- kcat/Km (CCCCCCCCC1CCC(=O)O1): 2210 ± 570 M⁻¹ s⁻¹
- Km [2]: 213 ± 33 µM
- kcat [2]: 1.03 ± 0.04 s⁻¹
- kcat/Km [2]: 4880 ± 770 M⁻¹ s⁻¹
- Km (CCCC1CCC(=O)O1): 388 ± 62 µM
- kcat (CCCC1CCC(=O)O1): 10.2 ± 0.5 s⁻¹
- kcat/Km (CCCC1CCC(=O)O1): 26400 ± 4400 M⁻¹ s⁻¹
- Km (CCCCCCCC(=O)NC1CCOC1=O): 178 ± 26 µM
- kcat (CCCCCCCC(=O)NC1CCOC1=O): 0.94 ± 0.02 s⁻¹
- kcat/Km (CCCCCCCC(=O)NC1CCOC1=O): 5280 ± 770 M⁻¹ s⁻¹
- Km (CCCCCCCC1CCCC(=O)O1): 185 ± 27 µM
- kcat (CCCCCCCC1CCCC(=O)O1): 3.34 ± 0.07 s⁻¹
- kcat/Km (CCCCCCCC1CCCC(=O)O1): 18100 ± 2700 M⁻¹ s⁻¹
- Km [3]: 836 ± 178 µM
- kcat [3]: 0.89 ± 0.07 s⁻¹
- kcat/Km [3]: 1070 ± 250 M⁻¹ s⁻¹

Compound: CC(=O)Oc1ccc([N+](=O)[O-])cc1 [pNP-acetate]
- K M (μM) (SacPox [1]): 2 107 ± 313 μM

Compound: CC(=O)Oc1ccccc1 [Phenyl-acetate]
- K M (μM) (SacPox [4]): 8 181 ± 1750 μM

Compound: O=C1CCCCCO1 [ϵ caprolactone]
- K M (μM) (SacPox [5]): 1 031 ± 83 μM

Compound: COP(=O)(OC)Oc1ccc([N+](=O)[O-])cc1 [Methyl Paraoxon]
- Km (SacPox [1]): 278 ± 40 µM
